Laboratory results reported in patent publication US20260364186A1, “Chemical Conjugates, Compositions, and Methods of Preparation and Use Thereof” (Transfection Holdings Limited, priority 2022, published 2026).
Entries after “also recorded” stand apart in the source; their conditions may differ.

Experiments:
[1] = tested on: NZM11 melanoma cancer cell line; assay: FACS uptake of BODIPY FL conjugates, 50 nM, 5 min (Example 1); assay type: cell-based, human
Experimental: FIG. 1. Conjugate compounds coupled to BODIPY FL were tested for uptake using 50 nM each conjugate and 5 minute incubation with HEM (human epidermal melanocytes) and melanoma cell line NZM11 (BRAF V600E mutant metastatic melanoma). Mean fluorescent intensities (MFI). For these tests, n=300-500, mean±SD. Results were from a single experiment done in triplicate. Cells were sorted by FACS.
Materials and methods: NZM11 is an adherent metastatic melanoma cell derived from a patient with a subcutaneous lesion on their mid back. This human metastatic melanoma is identified with code CBA-1398 from Cell bank Australia. […] Cells of NZM11 diluted in MEMα media and cells of HEMnDP (primary melanocyte cell line) diluted in media 254 were left to settle in 96-wells microplate for 48 hours. 10 μL of 10 mM stock solutions in DMSO from 138 and pantothenic acid/pantothenic acid derivatives coupled to BODIPY were diluted with HBSS to afford 100 nM solution. Then, 100 nM compounds and DMSO solutions were diluted 1:1 with MEMα media for NZM11 and media 254 for HEMnDP to afford 50 nM solutions. After the 48 hour settle time, media was removed from the cells and 200 μL of 50 nM media solutions were poured to each well and incubated for 5 minutes at 37 °C. […] The FACS results output represented the mean of the fluorescence intensities (in arbitrary units) measured for cells sorted in every sample

[2] = tested on: NZM40 (NRAS Q16H) melanoma cell line; assay: Sulforhodamine B (SRB) assay of proliferation (Example 7); assay type: cell-based, human; settings: 1 μM, 72 h
Experimental: FIG. 7: The 124 conjugate was tested for toxicity using 1 μM final concentration and 72 hour incubation with melanoma cell line NZM40 (NRAS Q16H mutant metastatic melanoma). Cell densities were calculated according with sulforhodamine B assay (SRB assay), absorbance at 515 nm. Cells images of DMSO control and 124 were taken at 24, 48 and 72 h through brightfield using conventional microscope. Results represents a single experiment done in a single sample.
Materials and methods: NZM40 cell line is described above. 1×10^6 NZM40 cells diluted in MEMα media were added to 2×10 cm plates and left to settle for 24 hours. After 24 hour settle period, media was removed from cells and 9900 μL fresh MEMα media added to each plate. 100 μL of DMSO were added to control plate and 100 μL [100 μM 124 in DMSO] were added to treatment plate to afford a final concentration of 1 μM 124. Cells were incubated at 37 °C and 5% 02 for 72 hours and cell images were taken every 24 hours. After 72 hour incubation, sulforhodamine B (SRB) assay was performed to compare final cell density. For this, 2.5 mL of cold 50% (w/v) TCA were added to DMSO (control) and 124 plates. Cells were incubated for 1 hour in TCA at 4 °C. […] The 96 well plate was analysed on plate reader, at wavelength of 515 nm. Results represent the absorbance of cells without dilution, 1:2 dilution, 1:4 dilution and 1:8 dilution.

Jurkat cells = assay: Flow cytometry time course of uptake (Example 12); assay type: cell-based, human; settings: 200 nM
Experimental: FIG. 12: Time course of uptake for compounds 124, 126, and 132 at 200 nM after 5, 30 or 60 minute incubation with Jurkat cells. Mean fluorescent intensities (MFI). 1,000 cells were sorted by FACS. Bars represent mean±SD. Results represents a single experiment done in triplicate.
Materials and methods: For this study, 7.7×10^5 Jurkat cells were centrifuged for 5 minutes at 2500 RPM. The supernatant was removed and the cells were diluted in RPMI media (supplemented with 1% FBS+1% penicillin-streptomycin) to 400 cells/μL. Next, 28 μL of 100 μM stock solutions from compound 124, 126, or 132 were diluted with 6972 μL of RPMI media (supplemented with 1% FBS+1% penicillin-streptomycin) to give a 400 nM solution. Following this, 250 μL of conjugate solutions (giving a 200 nM final concentration) and 250 μL of cell suspensions were then added to each well in a 96 well plate. In addition, 250 μL of media only was added to the DMSO control wells. Incubation was carried out for 5, 30 and 60 minutes at 37 °C in triplicate wells for each compound and time point.
After incubation, cells were centrifuged for 1.5 minutes at 5000 RCF. Supernatant was removed and the cell pellet re-suspended in 200 μL fresh RPMI media, transferred to 96 well-plate and each cell suspension analysed by flow cytometry. Flow cytometry results represent the mean of the fluorescence intensities (in arbitrary units) measured for cells sorted in every sample.

[3] = Whole body fluorescent cryo-imaging, tissue distribution (Example 13); assay type: in vivo, mouse; settings: 0.7 mg/kg i.v., 1 hour post dosing
Experimental: Materials and methods: Compound 124 was supplied as a 10 mM stock solution in DMSO. NZM011 cells were grown in AMEM, 5% FBS, 5 μg/mL insulin, 5 μg/mL transferrin, 5 ng/mL sodium selenite at 37 °C with 5% O2, 90% N2 5% CO2. The study was performed in 6-week-old male NIH-III athymic mice (strain code 201). Work was carried out by Ichor Biosciences La Fayette NY, USA. Mice were injected on one flank with 5×10^6 NZM11 cells in a 50:50 matrigel:media suspension with a 22G needle. When tumours reach over 500 mm3 the mice were administered intravenously (tail vein) with a solution of compound 124 in phosphate buffered saline at a dose of 0.7 mg/kg. The mice were euthanized at 1 hour or 6 hours post dosing and frozen for cryoimaging. A control mouse received no tumour cells or compound 124 and was euthanized and frozen for cryoimaging at the same time as the treated mice.
Processed animals were cryoimaged imaged at BioInvision in Cleveland Ohio. Whole animal was sectioned at 40 microns and imaged using brightfield at fluorescent modes (503 nm). In-plane pixel size 10 microns. Mouse #1 with tumour on one flank at 500 mm3, treated with compound 124 (0.7 mg/kg) and euthanised 1 hour post treatment. Mouse #6 no tumour or compound 124 treatment euthanised on same day.

CC1=CC(C)=[N+]2C1=Cc1ccc(CCCn3cc(CCNC(=O)/C=C/NC(=O)[C@H](O)C(C)(C)CO)nn3)n1[B-]2(F)F [Compound 124]
uptake (fluorescence intensities) [1]: significant uptake; also recorded: highest intensities; also recorded: best targeting activity, with high uptake into cancer cells | effect on proliferation [2]: comparable proliferation to DMSO control cells; also recorded: no significant difference on proliferation; also recorded: little to no effect on proliferation | morphology under microscope [2]: do not exhibit significant changes on morphology | uptake, times higher than DMSO control (Jurkat cells; 5 minutes): 4 times | uptake increase compared to DMSO control (Jurkat cells; 30 minutes): ten | uptake increase compared to DMSO control (Jurkat cells; 60 minutes): fourteen | uptake, in words (Jurkat cells; 5, 30, 60 minutes): highest uptake at every timepoint; also recorded: selective uptake | 124-specific fluorescence in bladder [3]: strong 124-specific fluorescence; also recorded: Specific 124-fluorescence was observed; also recorded: strong fluorescence observed in the bladder; also recorded: Fluorescence specific for compound 124 was seen | 124-specific fluorescence in kidneys [3]: 124-specific fluorescence was observed in the kidney medulla and kidneys (mainly renal medulla) | fluorescence in any other tissues [3]: No fluorescence | route of excretion [3]: renal clearance; also recorded: renal route
